B1: target 1 insG 3' of 4,insG 3' of 2 (mixed)
RNA 1: CACCCGUGCAAAAAUGCAGGGGUCUAAAACUGAGCGGAUAACCUCUCUAUGG
RNA 2: GGGAAUGGAUCCACAUCUACGAAUUCGUACCAUAGAGAGGUUAUCCGCGUCGACCGAGAUCGGAAGAGCACACGU
B2: target 1 insC 3' of 19,insC 3' of 19 (mixed)
RNA 1: B1 RNA 1
RNA 2: GGGAAUGGAUCCACAUCUACGAAUUCGUACCAUCCAGAGAGGUUAUCCGCUCACCGAGAUCGGAAGAGCACACGU
B3: target 1 U8C,A16U (mixed)
RNA 1: B1 RNA 1
RNA 2: GGGAAUGGAUCCACAUCUACGAAUUCGUACCAUAGUGAGGUUACCCGCUCACCGAGAUCGGAAGAGCACACGU
B4: target 1 insA 3' of 12,insG 3' of 11 (mixed)
RNA 1: B1 RNA 1
RNA 2: B2 RNA 2 with C34A, C35G, A40G, G41A, G42U, U43G
B5: target 1 C4A,U10C (mixed)
RNA 1: B1 RNA 1
RNA 2: B3 RNA 2 with U36A, U42C, C44U, C48A
B6: target 1 C6A,C21A (mixed)
RNA 1: B1 RNA 1
RNA 2: B3 RNA 2 with C31A, U36A, C44U, C46A
B7: target 1 insU 3' of 9,insA 3' of 8 (mixed)
RNA 1: B1 RNA 1
RNA 2: B1 RNA 2 with C45U, C46A, G47C, U50C, C51U, G52C
B8: target 1 del3,del15 (mixed)
RNA 1: B1 RNA 1
RNA 2: GGGAAUGGAUCCACAUCUACGAAUUCGUACCAUAGAAGGUUAUCCGCCACCGAGAUCGGAAGAGCACACGU
B9: target 1 insA 3' of 15,insU 3' of 14 (mixed)
RNA 1: B1 RNA 1
RNA 2: B2 RNA 2 with C34A, C35G, G39A, A40U
B10: target 1 A9C,A16G (mixed)
RNA 1: B1 RNA 1
RNA 2: B3 RNA 2 with U36G, A43C, C44U
B11: target 1 insC 3' of 5,insA 3' of 2 (mixed)
RNA 1: B1 RNA 1
RNA 2: B1 RNA 2 with G49C, G52A
B12: target 1 C6G,C7U (mixed)
RNA 1: B1 RNA 1
RNA 2: B3 RNA 2 with U36A, C44U, C45U, C46G
B13: target 1 U8A,A9C (mixed)
RNA 1: B1 RNA 1
RNA 2: B3 RNA 2 with U36A, A43C, C44A
B14: target 1 insA 3' of 22,insA 3' of 7 (mixed)
RNA 1: B1 RNA 1
RNA 2: GGGAAUGGAUCCACAUCUACGAAUUCGUACACAUAGAGAGGUUAUCACGCUCACCGAGAUCGGAAGAGCACACGU
B15: target 1 C6G,A20C (mixed)
RNA 1: B1 RNA 1
RNA 2: B3 RNA 2 with A32C, U36A, C44U, C46G
B16: target 1 insU 3' of 14,insG 3' of 8 (mixed)
RNA 1: B1 RNA 1
RNA 2: B2 RNA 2 with C34A, C35G, G39U, A40G, G42U, U44A, A45U, U46G
B17: target 1 U3G,U19C (mixed)
RNA 1: B1 RNA 1
RNA 2: B3 RNA 2 with U33C, U36A, C44U, U49G
B18: target 1 C4A,C22U (mixed)
RNA 1: B1 RNA 1
RNA 2: B3 RNA 2 with C30U, U36A, C44U, C48A
B19: target 1 U10G,U19G (mixed)
RNA 1: B1 RNA 1
RNA 2: B3 RNA 2 with U33G, U36A, U42G, C44U
B20: target 1 C2G,U11A (mixed)
RNA 1: B1 RNA 1
RNA 2: B3 RNA 2 with U36A, U41A, C44U, C50G
B21: target 1 U19C,C21U (mixed)
RNA 1: B1 RNA 1
RNA 2: B3 RNA 2 with C31U, U33C, U36A, C44U
B22: target 1 G5U,C6A (mixed)
RNA 1: B1 RNA 1
RNA 2: B3 RNA 2 with U36A, C44U, C46A, G47U
B23: target 1 A20C,C21G (mixed)
RNA 1: B1 RNA 1
RNA 2: B3 RNA 2 with C31G, A32C, U36A, C44U
B24: target 1 insU 3' of 20,insG 3' of 14 (mixed)
RNA 1: B1 RNA 1
RNA 2: B2 RNA 2 with C34U, C35A, A36G, G37A, A38G, G39A, A40G
B25: target 1 insG 3' of 16,insA 3' of 15 (mixed)
RNA 1: B1 RNA 1
RNA 2: B2 RNA 2 with C34A, C35G, A38G, G39A
B26: target 1 C2A,A20C (mixed)
RNA 1: B1 RNA 1
RNA 2: B3 RNA 2 with A32C, U36A, C44U, C50A
B27: target 1 G12U,U19G (mixed)
RNA 1: B1 RNA 1
RNA 2: B3 RNA 2 with U33G, U36A, G40U, C44U
B28: target 1 G17C,C21U (mixed)
RNA 1: B1 RNA 1
RNA 2: B3 RNA 2 with C31U, G35C, U36A, C44U
B29: target 1 insA 3' of 22,insC 3' of 14 (mixed)
RNA 1: B1 RNA 1
RNA 2: B14 RNA 2 with G40C, U42G, A44U, U45A, C46U, A47C
B30: target 1 insC 3' of 16,insC 3' of 16 (mixed)
RNA 1: B1 RNA 1
RNA 2: B2 RNA 2 with C34A, C35G, G37C, A38C
B31: target 1 insG 3' of 18,insG 3' of 8 (mixed)
RNA 1: B1 RNA 1
RNA 2: B14 RNA 2 with A31C, C32A, A33U, U34A, A35G, C46G, A47C
B32: target 1 A9G,U19G (mixed)
RNA 1: B1 RNA 1
RNA 2: B3 RNA 2 with U33G, U36A, A43G, C44U
B33: target 1 insC 3' of 5,insA 3' of 5 (mixed)
RNA 1: B1 RNA 1
RNA 2: B1 RNA 2 with G49A, U50C, C51U, G52C

Positions count from the first letter of the chain named. Names and notes keep the numbering of the source.

As usually defined, the Kd is a measure of binding affinity in units of concentration.

In this series the target is T1, EsCas13d, nuclease-dead (Eubacterium siraeum, UniProt B0MS50, R295A;H300A;R849A;H854A).
T1 sequence: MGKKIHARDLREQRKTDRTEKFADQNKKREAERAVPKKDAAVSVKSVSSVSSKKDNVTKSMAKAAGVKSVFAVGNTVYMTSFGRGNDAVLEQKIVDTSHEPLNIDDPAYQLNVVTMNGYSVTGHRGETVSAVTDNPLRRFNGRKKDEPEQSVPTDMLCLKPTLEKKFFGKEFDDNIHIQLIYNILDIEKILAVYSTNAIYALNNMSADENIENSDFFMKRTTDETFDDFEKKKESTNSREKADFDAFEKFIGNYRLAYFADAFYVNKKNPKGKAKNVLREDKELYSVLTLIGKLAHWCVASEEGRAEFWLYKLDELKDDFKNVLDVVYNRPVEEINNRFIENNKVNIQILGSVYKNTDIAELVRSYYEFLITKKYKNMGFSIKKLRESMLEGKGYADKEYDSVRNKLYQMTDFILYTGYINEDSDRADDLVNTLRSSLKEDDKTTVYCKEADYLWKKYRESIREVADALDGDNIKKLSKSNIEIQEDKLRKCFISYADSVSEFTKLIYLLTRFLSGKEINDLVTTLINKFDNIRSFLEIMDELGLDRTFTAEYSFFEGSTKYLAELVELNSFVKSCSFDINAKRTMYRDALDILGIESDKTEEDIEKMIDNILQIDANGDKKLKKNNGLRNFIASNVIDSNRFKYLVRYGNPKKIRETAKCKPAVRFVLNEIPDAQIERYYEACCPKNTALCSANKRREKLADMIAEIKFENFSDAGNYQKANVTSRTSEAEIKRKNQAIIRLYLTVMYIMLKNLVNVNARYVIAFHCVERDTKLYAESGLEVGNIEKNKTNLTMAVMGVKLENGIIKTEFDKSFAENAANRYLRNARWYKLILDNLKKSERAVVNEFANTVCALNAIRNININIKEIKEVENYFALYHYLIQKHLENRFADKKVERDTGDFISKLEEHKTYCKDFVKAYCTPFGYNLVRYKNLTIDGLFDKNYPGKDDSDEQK
Nature of the series: crRNA (strand 1, pre-loaded); Mg2+; 40 mM Tris-HCl pH 7.5, 150 mM NaCl, 6 mM MgCl2, 1 mM DTT, 0.1% Tween-20, 0.2 mg/ml BSA; 25 C; 10 min per concentration, then washed. To be noted: tags: His6-TwinStrep-SUMO cleaved; N-terminal SNAP kept (SNAP-Surface 488); label: 3' end held by stalled T7 RNA polymerase.
B1 gave a dissociation constant Kd of 4.72 ± 0.29 nM.
B2 showed a Kd of 29.2 ± 3.5 nM.
B3 displayed a Kd of 59 ± 8 nM.
As for B4, the figure is 49 ± 6 nM; as for B5, 5.53 ± 0.31 nM; as for B6, 23.5 ± 1.7 nM.
In turn, B7 displayed a Kd of 9.8 ± 0.4 nM.
Take B8: the Kd amounted to 30.2 ± 3.3 nM.
Regarding B9, binding was put at a Kd of 21.1 ± 1.8 nM.
Consider B10, for which the Kd was 68 ± 27 nM.
Next, B11: 7.87 ± 0.33 nM.
Next, B12: 8.06 ± 0.32 nM; B13: 8.9 ± 0.4 nM; B14: 8 ± 0.6 nM.
On to B15, for which binding was characterised by a dissociation constant (Kd) of 36 ± 6 nM.
As for B16, the figure is 38.1 ± 2.5 nM; as for B17, 25.1 ± 3.4 nM.
In turn, B18 had a Kd of 9.2 ± 1 nM.
B19 yielded a Kd of 90 ± 40 nM.
The molecule B20 returned a Kd of 13.6 ± 1.1 nM.
In turn, B21 gave a Kd of 5.98 ± 0.2 nM.
On to B22, for which the Kd amounted to 24.3 ± 1.6 nM.
Molecule B23 showed a dissociation constant Kd of 57 ± 26 nM.
For the molecule B24, the Kd was 18.9 ± 0.9 nM.
As to B25, the Kd is 17.5 ± 0.9 nM.
Molecule B26 displayed a Kd of 36 ± 4 nM.
Turning to B27, binding was characterised by a dissociation constant (Kd) of 35 ± 5 nM.
As for B28, the figure is 7.6 ± 0.7 nM.
Molecule B29 returned a Kd of 36 ± 6 nM.
B30 yielded a Kd of 72 ± 22 nM.
B31: binding was put at a Kd of 50 ± 4 nM.
B32 displayed a Kd of 49 ± 14 nM.
The molecule B33 displayed a Kd of 11.5 ± 0.5 nM.

The values are drawn from paper PMC10786891, “Massively parallel profiling of RNA-targeting CRISPR-Cas13d”.
